4 molecules from PMC3433420, “Comprehensive Binary Interaction Mapping of SH2 Domains via Fluorescence Polarization Reveals Novel Functional Diversification of ErbB Receptors” (PLoS ONE, 2012) can be followed below.

Values joined by “and” are separate entries in the source; they are usually repeats but may differ in a detail not shown here. Identical values can stand only once. Non-standard residues stand in square brackets, D forms with d. No end group written: not given here. pY = N[C@@H](Cc1ccc(OP(=O)(O)O)cc1)C(=O)O; Rhodamine = not defined here; rhodamine = not defined here

Common to all, as to conditions: both partners purified
The target of assay [1] is T1, SRC SH2 domain (human, UniProt P12931-1 151-248).
T1 construct: SRC, human; also called c-Src; source: bacterial expression, purified
Put plainly: fluorescence polarisation; saturation binding in solution: rhodamine peptide fixed at 10 nM, protein titrated 0.002-10 uM, 20 min at room temperature; assay buffer 20 mM HEPES, 100 mM KCl, 0.1% Tween-20, 5 mM DTT, pH 7.8; apparent KD. (In general: In fluorescence polarisation assays a small probe gives low polarisation when free and higher when bound to something large.)

Assay [2] deals with T2, GRB7 SH2 domain (human, UniProt Q14451 431-527).
T2 construct: GRB7, human; source: bacterial expression, purified
T2 sequence (Q14451 431-527): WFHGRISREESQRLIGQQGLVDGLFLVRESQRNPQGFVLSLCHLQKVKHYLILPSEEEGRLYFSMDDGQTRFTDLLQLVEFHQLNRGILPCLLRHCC
The description is as above.

The target in assay [3] is T3, PTK6 SH2 domain (human, UniProt Q13882 78-170).
T3 construct: PTK6, human; source: bacterial expression, purified
T3 sequence (Q13882 78-170): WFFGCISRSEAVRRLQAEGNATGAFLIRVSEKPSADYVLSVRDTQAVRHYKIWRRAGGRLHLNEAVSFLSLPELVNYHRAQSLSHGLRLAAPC
Described as above.

The target of assay [4] is T4, ITK SH2 domain (human, UniProt Q08881 239-338).
T4 construct: ITK, human; source: bacterial expression, purified
T4 sequence (looked up): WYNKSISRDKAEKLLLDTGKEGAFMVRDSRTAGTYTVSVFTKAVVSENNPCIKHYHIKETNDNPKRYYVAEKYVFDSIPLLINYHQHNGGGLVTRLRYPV
Description: peptide or protein array; SH2/PTB proteins spotted on aldehyde slides, rhodamine peptide titrated in buffer B (20 mM HEPES, 100 mM KCl, 0.1% Tween-20, 5 mM DTT, pH 7.8), 1 h at room temperature; replicate assays.

Assay [5] deals with T5, SHC1 domain construct (human).
T5 chain: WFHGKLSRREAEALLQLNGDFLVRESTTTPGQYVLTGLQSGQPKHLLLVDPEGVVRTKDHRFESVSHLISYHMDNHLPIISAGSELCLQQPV
The description is as above.

The target in assay [6] is T6, BLNK SH2 domain (human, UniProt Q8WV28 346-453).
T6 construct: BLNK, human; source: bacterial expression, purified
T6 sequence (looked up): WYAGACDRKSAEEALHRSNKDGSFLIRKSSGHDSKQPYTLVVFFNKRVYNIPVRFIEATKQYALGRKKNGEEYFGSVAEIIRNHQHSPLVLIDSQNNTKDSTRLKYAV
The description is as above.

The target of assay [7] is T7, ABL2 SH2 domain (human, UniProt P42684 173-263).
T7 construct: ABL2, human; source: bacterial expression, purified
T7 sequence (looked up): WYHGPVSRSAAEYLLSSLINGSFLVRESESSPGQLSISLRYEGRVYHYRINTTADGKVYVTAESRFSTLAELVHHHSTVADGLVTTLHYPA
The assay is described as above.

The target in assay [8] is T8, SUPT6H SH2 domain (human, UniProt Q7KZ85 1325-1431).
T8 construct: SUPT6H, human; source: bacterial expression, purified
T8 sequence (Q7KZ85 1325-1431): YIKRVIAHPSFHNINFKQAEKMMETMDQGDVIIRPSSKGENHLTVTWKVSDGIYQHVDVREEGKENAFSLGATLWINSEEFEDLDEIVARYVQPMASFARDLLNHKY
Described as above.

For assay [9], the target named is T9, SHF SH2 domain (human, UniProt Q7M4L6 323-418).
T9 construct: SHF, human; source: bacterial expression, purified
T9 sequence (looked up): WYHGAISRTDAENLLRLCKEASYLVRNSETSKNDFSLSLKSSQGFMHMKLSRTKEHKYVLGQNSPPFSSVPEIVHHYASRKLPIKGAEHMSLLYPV
The assay is described as above.

For assay [10], the target named is T10, YES1 SH2 domain (human, UniProt P07947 158-255).
T10 construct: YES1, human; source: bacterial expression, purified
T10 sequence (P07947 158-255): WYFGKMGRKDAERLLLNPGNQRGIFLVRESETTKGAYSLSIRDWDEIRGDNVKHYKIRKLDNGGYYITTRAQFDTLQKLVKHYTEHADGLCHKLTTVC
Described as above.

Assay [11] concerns the target T11, LCK SH2 domain (human, UniProt P06239 127-224).
T11 construct: LCK, human; source: bacterial expression, purified
The description is as above.

Assay [12] concerns the target SYK tandem SH2 domains (human). Described as above.
For assay [13], the target named is T12, BLK SH2 domain (human, UniProt P51451 124-220).
T12 construct: BLK, human; source: bacterial expression, purified
T12 sequence (P51451 124-220): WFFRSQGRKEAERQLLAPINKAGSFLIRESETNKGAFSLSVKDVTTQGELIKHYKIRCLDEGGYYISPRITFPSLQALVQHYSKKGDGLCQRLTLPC
Described as above.

The target of assay [14] is T13, GRAP2 SH2 domain (human, UniProt O75791 58-149).
T13 construct: GRAP2, human; source: bacterial expression, purified
T13 sequence (looked up): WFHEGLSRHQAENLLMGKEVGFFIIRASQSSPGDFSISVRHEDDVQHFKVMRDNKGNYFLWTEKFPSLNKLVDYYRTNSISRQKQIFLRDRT
Described as above.

Assay [15] addresses T14, STAP1 SH2 domain (human, UniProt Q9ULZ2 177-280).
T14 construct: STAP1, human; source: bacterial expression, purified
T14 sequence (looked up): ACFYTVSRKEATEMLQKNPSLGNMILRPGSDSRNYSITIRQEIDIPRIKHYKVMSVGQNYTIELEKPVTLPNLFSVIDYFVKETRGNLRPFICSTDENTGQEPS
The assay is described as above.

Assay [16] deals with T15, SH2D3A SH2 domain (human, UniProt Q9BRG2 15-114).
T15 construct: SH2D3A, human; source: bacterial expression, purified
T15 sequence (Q9BRG2 15-114): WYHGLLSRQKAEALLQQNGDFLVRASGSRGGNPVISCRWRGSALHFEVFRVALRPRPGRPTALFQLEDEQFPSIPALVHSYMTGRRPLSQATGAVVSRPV
The assay is described as above.

Assay [17] deals with T16, PIK3R1 N-terminal SH2 domain (human).
T16 construct: PIK3R1, human; source: bacterial expression, purified
Description: SPR; Biacore 3000; 6X His SH2 proteins held on a Ni-NTA chip, dye-free peptides in solution, equilibrium.

For assay [18], the target named is T17, PIK3R3 C-terminal SH2 domain (human).
T17 construct: PIK3R3, human; source: bacterial expression, purified
The description is as above.

The target of assay [19] is T18, TNS3 SH2 domain (human, UniProt Q68CZ2 1172-1282).
T18 construct: TNS3, human; source: bacterial expression, purified
T18 sequence (looked up): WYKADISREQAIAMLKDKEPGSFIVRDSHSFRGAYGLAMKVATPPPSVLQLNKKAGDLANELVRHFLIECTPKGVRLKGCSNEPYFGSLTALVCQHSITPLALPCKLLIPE
The assay is described as above.

The target of assay [20] is T19, SYK C-terminal SH2 domain (human).
T19 construct: SYK, human; source: bacterial expression, purified
The assay is described as above.

For assay [21], the target named is T20, PLCG1 C-terminal SH2 domain (human).
T20 construct: PLCG1, human; source: bacterial expression, purified
T20 sequence (P19174 whole entry, looked up): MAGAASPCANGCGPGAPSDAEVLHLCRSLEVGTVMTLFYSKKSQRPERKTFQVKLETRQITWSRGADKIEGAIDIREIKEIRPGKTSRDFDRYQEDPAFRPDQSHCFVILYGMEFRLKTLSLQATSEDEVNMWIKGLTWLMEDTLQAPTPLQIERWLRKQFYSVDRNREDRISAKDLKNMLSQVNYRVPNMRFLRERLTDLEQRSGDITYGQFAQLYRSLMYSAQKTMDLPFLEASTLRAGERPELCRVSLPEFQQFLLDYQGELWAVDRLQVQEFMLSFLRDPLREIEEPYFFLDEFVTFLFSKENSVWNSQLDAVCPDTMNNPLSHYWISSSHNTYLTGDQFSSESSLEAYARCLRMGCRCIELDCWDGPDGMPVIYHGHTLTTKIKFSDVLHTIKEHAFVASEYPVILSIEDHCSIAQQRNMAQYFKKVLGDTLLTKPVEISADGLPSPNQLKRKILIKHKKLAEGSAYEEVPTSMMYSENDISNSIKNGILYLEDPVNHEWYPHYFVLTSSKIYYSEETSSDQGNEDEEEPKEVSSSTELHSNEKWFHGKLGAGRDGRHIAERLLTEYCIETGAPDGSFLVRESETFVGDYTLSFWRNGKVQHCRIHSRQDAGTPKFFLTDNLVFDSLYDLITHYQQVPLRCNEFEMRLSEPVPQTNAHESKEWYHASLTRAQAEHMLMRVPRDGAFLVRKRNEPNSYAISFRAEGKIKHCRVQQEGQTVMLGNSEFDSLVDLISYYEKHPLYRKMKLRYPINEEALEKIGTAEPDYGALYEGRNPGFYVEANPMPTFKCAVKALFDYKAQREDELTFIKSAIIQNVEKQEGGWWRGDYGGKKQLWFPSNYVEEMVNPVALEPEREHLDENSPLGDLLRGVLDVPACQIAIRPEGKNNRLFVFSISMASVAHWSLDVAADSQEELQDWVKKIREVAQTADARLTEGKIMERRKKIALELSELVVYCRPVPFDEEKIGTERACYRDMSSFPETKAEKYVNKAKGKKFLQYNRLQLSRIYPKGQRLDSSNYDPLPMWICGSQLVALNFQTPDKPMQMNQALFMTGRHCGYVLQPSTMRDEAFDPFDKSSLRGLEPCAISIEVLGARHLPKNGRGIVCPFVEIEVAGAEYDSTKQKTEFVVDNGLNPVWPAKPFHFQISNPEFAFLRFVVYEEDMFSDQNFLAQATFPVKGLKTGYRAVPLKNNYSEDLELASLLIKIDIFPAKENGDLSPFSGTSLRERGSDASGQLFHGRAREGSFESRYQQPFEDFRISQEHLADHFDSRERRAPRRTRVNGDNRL
Described as above.

Assay [22] deals with T21, VAV2 SH2 domain (human, UniProt P52735 673-767).
T21 construct: VAV2, human; source: bacterial expression, purified
T21 sequence (looked up): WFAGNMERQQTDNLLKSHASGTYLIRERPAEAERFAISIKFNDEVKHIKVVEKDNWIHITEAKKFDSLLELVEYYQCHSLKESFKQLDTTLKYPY
The assay is described as above.

T11 sequence (P06239 127-224): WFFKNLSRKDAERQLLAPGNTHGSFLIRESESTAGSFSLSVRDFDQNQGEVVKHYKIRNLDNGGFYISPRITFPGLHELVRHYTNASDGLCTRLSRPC

B1: ErbB3pY1222 phosphopeptide, rhodamine-labelled (peptide)
peptide: rhodamine-EELG[pY]EYMDVGSD
modifications: reading uncertain
notes: human ErbB3 around Tyr1222; also called labeled peptide 5; source: synthetic peptide
B1: the Kd in [1] is 2330 nM.

B2: ErbB3pY1197 phosphopeptide, rhodamine-labelled (peptide)
peptide: Rhodamine-EDEE[pY]EYMNRRRD
modifications: reading uncertain
notes: human ErbB3 around Tyr1197; also called labeled peptide 4; source: synthetic peptide
In the case of B2, the Kd in assay [2] amounted to 130 nM; in [3], 5790 nM.
Regarding Rhodamine-PLQR[pY]SEDPTVPD (reading uncertain) [ErbB2 pY1112 phosphopeptide, rhodamine-labelled, for protein microarrays], the Kd in [4] is 52900 nM; in assay [5] it was 1260 nM and 3060 nM; in [6], 4900 nM; in [7], 1840 nM; in assay [8], 1040 nM; in assay [9] it was 2970 nM. The Kd is 720 nM and 1600 nM in assay [10]; 10300 nM and 8930 nM in assay [11]; 893 nM and 803 nM in assay [12]; 3220 nM and 1170 nM and 2070 nM in [13]; 7150 nM in assay [14]; 50 nM in assay [15]. For the same molecule, the Kd in [16] was found to be 26600 nM.
On to PDPL[pY]EVMLKCW [MET pY1313 phosphopeptide, dye-free], for which the Kd in [17] was found to be 53 nM; in [18], 56 nM; in assay [19] it was 132 nM; in assay [20] it was 1660 nM; in assay [21], 486 nM; in [22], 2510 nM.
